# According to patent US8883410B2, “Method for determining the stability of organic methyleneamines in the presence of semicarbazide-sensitive amine oxidase” (Sanofi, priority 2007, dated 2014):
# T1: recombinant human SSAO (Homo sapiens, UniProt Q16853)
# T1 construct: expressed in transfected cells; cell lysate
# T1 sequence (Q16853 1-763): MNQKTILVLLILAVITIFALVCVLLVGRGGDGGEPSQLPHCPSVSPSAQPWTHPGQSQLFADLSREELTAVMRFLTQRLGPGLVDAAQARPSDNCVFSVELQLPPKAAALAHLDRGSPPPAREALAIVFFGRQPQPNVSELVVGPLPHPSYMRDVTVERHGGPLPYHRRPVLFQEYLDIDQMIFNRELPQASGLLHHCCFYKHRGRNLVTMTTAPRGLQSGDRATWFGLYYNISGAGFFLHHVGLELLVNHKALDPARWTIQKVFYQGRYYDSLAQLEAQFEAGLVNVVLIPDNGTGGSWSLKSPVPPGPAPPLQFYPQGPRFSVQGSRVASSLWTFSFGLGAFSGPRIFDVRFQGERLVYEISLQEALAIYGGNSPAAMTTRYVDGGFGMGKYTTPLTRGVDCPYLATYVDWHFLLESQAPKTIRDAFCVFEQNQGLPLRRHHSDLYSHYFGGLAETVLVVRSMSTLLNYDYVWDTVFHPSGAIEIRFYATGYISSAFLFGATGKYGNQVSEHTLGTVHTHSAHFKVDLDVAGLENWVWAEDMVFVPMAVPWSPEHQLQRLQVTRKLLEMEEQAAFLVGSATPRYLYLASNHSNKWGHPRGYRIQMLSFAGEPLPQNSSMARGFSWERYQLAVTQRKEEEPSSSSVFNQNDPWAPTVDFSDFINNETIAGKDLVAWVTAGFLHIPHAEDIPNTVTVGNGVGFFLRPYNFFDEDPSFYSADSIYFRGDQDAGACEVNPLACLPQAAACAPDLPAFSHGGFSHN
# B1: recombinant SSAO: recombinant human SSAO, full-length untagged, in CHO Flp-In cell lysate (protein, UniProt Q16853 1-763, looked up)
# chain: T1 sequence (Q16853 1-763)
# modifications: full-length
# notes: recombinant human SSAO, full-length untagged, in CHO Flp-In cell lysate
# Molecular target: T1, recombinant human SSAO
# Experiment: Amplex Red assay of specific activity of recombinant human SSAO
# Format: biochemical
# Description: The Amplex Red assay (a commercially available assay), was used initially to measure the specific activity of the recombinant human SSAO. Amplex Red is a colorless and nonfluorescent derivative of dihydroresorufin. In the presence of amine oxidases and SSAO, the Amplex Red reacts with H2O2 to produce the highly fluorescent product, resorufin. Resorufin has an excitation maximum at 563 nm and emission maximum at 587 nm and the assay can be quantified by reading the microtitre plate at 587 nm. The specific activity of recombinant SSAO was determined to be 280 pmol/min/mg protein and this was determined to be equivalent to the specific activity of SSAO found in human lung tissue. For subsequent assays to profile compounds in the LC/MS/MS assay, recombinant human SSAO (rhSSAO) was used at this defined specific activity.
molecule,measurement,value
B1,specific activity of recombinant SSAO,280 pmol/min/mg protein
